Laboratory results: patent US20070196354A1, “Method of treating diabetes by inhibiting degradation of at least one of crebl1, atf6, and hnf-4 alpha by htra” (priority 2003, published 2007)

T1: CREBL1 (Homo sapiens, UniProt Q99941)
T1 construct: expressed in transfected cells; host or cells: HEK293T
T1 sequence (Q99941 1-703): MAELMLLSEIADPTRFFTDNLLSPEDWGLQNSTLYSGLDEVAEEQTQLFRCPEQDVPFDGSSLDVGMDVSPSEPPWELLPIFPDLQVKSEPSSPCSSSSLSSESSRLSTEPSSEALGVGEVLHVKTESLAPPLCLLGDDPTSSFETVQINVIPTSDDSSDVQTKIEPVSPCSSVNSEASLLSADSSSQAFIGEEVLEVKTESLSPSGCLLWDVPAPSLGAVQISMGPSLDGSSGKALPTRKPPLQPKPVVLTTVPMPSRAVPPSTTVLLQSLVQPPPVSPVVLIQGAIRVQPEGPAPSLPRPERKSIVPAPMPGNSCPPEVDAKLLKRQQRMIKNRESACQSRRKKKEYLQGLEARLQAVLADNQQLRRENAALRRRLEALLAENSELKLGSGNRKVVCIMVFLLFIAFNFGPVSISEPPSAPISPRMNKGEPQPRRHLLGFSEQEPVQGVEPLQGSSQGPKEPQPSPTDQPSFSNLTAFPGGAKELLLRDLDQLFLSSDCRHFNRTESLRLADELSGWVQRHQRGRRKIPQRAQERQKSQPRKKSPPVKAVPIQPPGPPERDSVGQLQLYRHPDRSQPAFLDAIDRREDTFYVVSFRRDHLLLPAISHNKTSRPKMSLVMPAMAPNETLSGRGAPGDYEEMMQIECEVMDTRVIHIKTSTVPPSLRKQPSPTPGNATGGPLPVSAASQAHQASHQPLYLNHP

T2: HNF-4α (Homo sapiens, UniProt P41235)
T2 construct: expressed in transfected cells; host or cells: HEK293T
T2 sequence (P41235 10-474): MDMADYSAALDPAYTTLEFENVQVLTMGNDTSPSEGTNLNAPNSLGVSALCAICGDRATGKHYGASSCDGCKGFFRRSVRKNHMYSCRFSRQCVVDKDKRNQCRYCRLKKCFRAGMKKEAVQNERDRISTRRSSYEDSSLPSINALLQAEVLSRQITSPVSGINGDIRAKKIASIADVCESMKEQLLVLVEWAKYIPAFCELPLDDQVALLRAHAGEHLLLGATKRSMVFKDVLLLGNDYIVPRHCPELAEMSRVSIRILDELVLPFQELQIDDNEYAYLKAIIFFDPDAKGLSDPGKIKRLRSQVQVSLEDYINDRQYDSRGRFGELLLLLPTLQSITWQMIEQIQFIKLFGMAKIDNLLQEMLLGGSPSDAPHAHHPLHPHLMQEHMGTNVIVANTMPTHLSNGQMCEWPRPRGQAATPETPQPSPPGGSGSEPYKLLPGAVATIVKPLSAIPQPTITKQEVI

T3: ATF6 (Homo sapiens, UniProt P18850)
T3 construct: expressed in transfected cells; host or cells: HEK293T
T3 sequence (P18850 1-670): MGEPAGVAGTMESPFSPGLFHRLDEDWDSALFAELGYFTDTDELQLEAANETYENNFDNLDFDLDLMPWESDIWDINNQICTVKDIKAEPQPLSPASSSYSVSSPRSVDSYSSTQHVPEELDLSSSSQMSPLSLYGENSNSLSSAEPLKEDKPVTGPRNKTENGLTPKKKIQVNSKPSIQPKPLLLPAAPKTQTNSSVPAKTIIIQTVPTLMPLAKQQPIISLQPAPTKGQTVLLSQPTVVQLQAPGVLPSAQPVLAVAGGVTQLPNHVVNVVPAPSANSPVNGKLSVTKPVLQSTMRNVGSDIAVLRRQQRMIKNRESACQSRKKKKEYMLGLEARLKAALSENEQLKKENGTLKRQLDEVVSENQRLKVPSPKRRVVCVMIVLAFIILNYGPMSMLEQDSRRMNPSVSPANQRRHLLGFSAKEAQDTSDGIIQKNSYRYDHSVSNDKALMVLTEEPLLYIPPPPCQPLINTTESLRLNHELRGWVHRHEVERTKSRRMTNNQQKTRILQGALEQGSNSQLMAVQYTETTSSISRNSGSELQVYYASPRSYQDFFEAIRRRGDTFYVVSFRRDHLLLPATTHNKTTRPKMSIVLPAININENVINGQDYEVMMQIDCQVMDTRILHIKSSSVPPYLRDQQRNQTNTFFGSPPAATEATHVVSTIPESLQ

B1: mature HtrA2 (S306A, ΔAVPS): SEQ ID NO: 12; mature HtrA2 (S306A) lacking the N-terminal four amino acid residues (AVPS) (protein)
chain: MPPPASPRSQYNFIADVVEKTAPAVVYIEILDRHPFLGREVPISNGSGFVVAADGLIVTNAHVVADRRRVRVRLLSGDTYEAVVTAVDPVADIATLRIQTKEPLPTLPLGRSADVRQGEFVVAMGSPFALQNTITSGIVSSAQRPARDLGLPQTNVEYIQTDAAIDFGNAGGPLVNLDGEVIGVNTMKVTAGISFAIPSDRLREFLHRGEKKNSSSGISGSQRRYIGVMMLTLSPSILAELQLREPSFPDVQHGVLIHKVILGSPAHRAGLRPGDVILAIGEQMVQNAEDVYEAVRTQSQLAVQIRRGRETLTLYVTPEVTE
modifications: Polypeptide consisting of the same amino acid sequence of SEQ ID NO6 wherein the amino acid residues from the 2nd to the 5th are deleted; mature HtrA2(S306A, delta AVPS)
B2: mature HtrA2 (S306A, GVPS): SEQ ID NO: 14; mature HtrA2 (S306A) with N-terminal alanine substituted with glycine (protein)
chain: MGVPSPPPASPRSQYNFIADVVEKTAPAVVYIEILDRHPFLGREVPISNGSGFVVAADGLIVTNAHVVADRRRVRVRLLSGDTYEAVVTAVDPVADIATLRIQTKEPLPTLPLGRSADVRQGEFVVAMGSPFALQNTITSGIVSSAQRPARDLGLPQTNVEYIQTDAAIDFGNAGGPLVNLDGEVIGVNTMKVTAGISFAIPSDRLREFLHRGEKKNSSSGISGSQRRYIGVMMLTLSPSILAELQLREPSFPDVQHGVLIHKVILGSPAHRAGLRPGDVILAIGEQMVQNAEDVYEAVRTQSQLAVQIRRGRETLTLYVTPEVTE
modifications: Polypeptide consisting of the same amino acid sequence of SEQ ID NO6 wherein the 2nd amino acid residue is substituted by Gly; mature HtrA2(S306A, GVPS)
notes: mature HtrA2 (S306A) with N-terminal alanine substituted with glycine

What was measured:
[1] = molecular target: T1, CREBL1; test: Intracellular protease assay, co-expression with CREBL1 in HEK293T cells; format: cell-based; conditions: 48 hours
Protocol: (§1) HEK293T cells were cultured to 1.5×10^5 cells/10 cm Dish. Next day, the expression plasmid of CREBL1 or ATF6 was transfected into HEK293T cells together with the expression plasmid of various types of HtrA2 using FuGene 6 (Roche). Each of the expression plasmid of various HtrA2 at 1 μg/Dish was added in combination with CREBL1 expression plasmid or ATF6 expression plasmid at 1 μg/Dish. Forty eight hours later, the cells in which the various types of HtrA2 were co-expressed with CREBL1 or ATF6 were added with 200 μl of lysis buffer B and an equivalent volume of 2×SDS sample buffer (containing 0.1% β-mercaptoethanol), and then subjected to sonication followed by boiling to use as a test sample.
(§2) Expression of CREBL1 and ATF6 and the degradation of these proteins were detected by western blotting using 10 μl of the test sample thus obtained. Anti-c-Myc (9E10) antibody was used as a primary antibody for detection, and horseradish peroxidase (HRP) conjugated anti-mouse IgG antibody (Cell Signaling) was used as a secondary antibody. Detection was carried out using ECL Western Blotting Detection System.

[2] = molecular target: T2, HNF-4α; test: Intracellular protease assay, co-expression with HNF-4α in HEK293T cells; format: cell-based; conditions: 48 hours
Protocol: as §1, with “cells/6” for “cells/10”, “HNF-4α” for “CREBL1 or ATF6”, “HNF-4α” for “CREBL1 expression plasmid or ATF6”
Expression of HNF-4α and the degradation of HNF-4α were detected by western blotting using 10 μl of the test sample thus obtained. Anti-FLAG antibody (Sigma) was used as a primary antibody for detection, and horseradish peroxidase (HRP) labeled anti-mouse IgG antibody (Cell Signaling) was used as a secondary antibody. Detection was carried out using ECL Western Blotting Detection System.

[3] = molecular target: T3, ATF6; test: Intracellular protease assay, co-expression with ATF6 in HEK293T cells; format: cell-based; conditions: 48 hours
Protocol: as §1, §2

[4] = tested on: casein; test: Casein zymography and protease assay with casein sodium; format: biochemical; conditions: HtrA2 types expressed in a cultured cell
Protocol: Determination of the activity of mature HtrA2 and mature HtrA2 (S306A) was carried out with casein zymography and with a protease assay with casein sodium. Casein zymography was carried out according to the protocol (Invitrogen). More concretely, mature HtrA2 and mature HtrA2 (S306A) were mixed under non-reductive condition with equivalent volume of 2×SDS sample buffer, left to stand at room temperature for 10 min, followed by separation with 4-16% zymogram (Blue casein) gel (Zymogram Gel, Invitrogen). After completion of electrophoresis, they were renatured with 2.5% Triton X-100, and then subjected to a degradation reaction of casein in the developing buffer at 37= C. for overnight.
Meanwhile, a protease assay using casein sodium as an substrate was carried out in such that mature HtrA2 or mature HtrA2 (S306A) was mixed with casein sodium in a reaction buffer (150 mM NaCl, 50 mM Tris-HCl (pH 7.5)) so as to the concentration of the former might become 200 μg/ml and the concentration of the latter might become 400 μg/ml, and incubated at 37° C. for reactions. A portion of the reaction solution was sampled at three hours and overnight after initiation of the reaction, mixed with equivalent volume of 2×SDS sample buffer followed by boiling, and then subjected to SDS-PAGE. After that, the degradation of casein sodium was detected by Coomassie Brilliant Blue (CBB) staining.
The enzyme activity of the various types of HtrA2 each of which was expressed in a cultured cell was determined by the protease assay using casein sodium as a substrate (see Example 2).

Row | Molecule | degradation of CREBL1 in cells (band by western blotting) [1] | degradation of HNF-4α in cells (band by western blotting) [2] | degradation of ATF6 in cells (band by western blotting) [3] | protease activity using casein sodium as a substrate [4]
1 | B1 | the reduction of the band of CREBL1 was not observed | the reduction of the band of HNF-4α was not observed | the reduction of the band of ATF6 was not observed | inactive type without exhibiting protease activity
2 | B2 | the reduction of the band of CREBL1 was not observed | the reduction of the band of HNF-4α was not observed | the reduction of the band of ATF6 was not observed | inactive type without exhibiting protease activity
